Patent publication US20220074941A1, “HSP90 COMBINATION THERAPY” (Sloan-Kettering Institute for Cancer Research, priority 2011, published 2022)

Experiments:
[1] = test system: Hsp90 complexes in Mia-PaCa-2 cell extract; experiment: Nano-LC-MS/MS of PU-beads pull-downs; assay type: binding, human; settings: protein identified in PU-beads pull-down of Mia-PaCa-2 cell extract; QSTAR-Elite QTof MS
Summary of the method: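 Lysates pre-cleared overnight at 4 °C with control beads underwent PU-bead pull-down; bound proteins were SDS-eluted, gel-separated, digested and analyzed by nano-LC-MS/MS on a QTof. Identifications used significance p<0.05, 0.4 Da tolerances and one missed cleavage; unique peptide (spectral) counts and sequence coverage were reported.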

[2] = test system: Hsp90 complexes in K562 cell extract; experiment: Nano-LC-MS/MS of PU-beads pull-downs; assay type: binding; settings: protein identified in PU-beads pull-down of K562 cell extract, QSTAR-Elite QTof MS
Summary of the method: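 Lysates pre-cleared overnight at 4 °C with control beads, then pulled down with PU-beads or control beads; eluted proteins (2% SDS boil) gel-separated and analysed by nano LC-MS/MS on a QTof. Mascot identification (p<0.05), spectral counts and sequence coverage evaluated in Scaffold.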

B1: NUP85 (protein, UniProt Q9BW27 1-656, looked up)
Nuclear pore complex protein …: MEELDGEPTVTLIPGVNSKKNQMYFDWGPGEMLVCETSFNKKEKSEMVPSCPFIYIIRKDVDVYSQILRKLFNESHGIFLGLQRIDEELTGKSRKSQLVRVSKNYRSVIRACMEEMHQVAIAAKDPANGRQFSSQVSILSAMELIWNLCEILFIEVAPAGPLLLHLLDWVRLHVCEVDSLSADVLGSENPSKHDSFWNLVTILVLQGRLDEARQMLSKEADASPASAGICRIMGDLMRTMPILSPGNTQTLTELELKWQHWHEECERYLQDSTFATSPHLESLLKIMLGDEAALLEQKELLSNWYHFLVTRLLYSNPTVKPIDLHYYAQSSLDLFLGGESSPEPLDNILLAAFEFDIHQVIKECSIALSNWWFVAHLTDLLDHCKLLQSHNLYFGSNMREFLLLEYASGLFAHPSLWQLGVDYFDYCPELGRVSLELHIERIPLNTEQKALKVLRICEQRQMTEQVRSICKILAMKAVRNNRLGSALSWSIRAKDAAFATLVSDRFLRDYCERGCFSDLDLIDNLGPAMMLSDRLTFLGKYREFHRMYGEKRFADAASLLLSLMTSRIAPRSFWMTLLTDALPLLEQKQVIFSAEQTYELMRCLEDLTSRRPVHGESDTEQLQDDDIETTKVEMLRLSLARNLARAIIREGSLEGS
Number of Assigned Spectra, Mia-Paca 2 [1]: 0 | Number of Assigned Spectra, K562 Prep 1 [2]: 14 | Number of Assigned Spectra, K562 Prep 2 [2]: 2

B2: NUP160 (protein, UniProt Q12769 1-1436, looked up)
Nuclear pore complex protein …: MLHLSAAPPAPPPEVTATARPCLCSVGRRGDGGKMAAAGALERSFVELSGAERERPRHFREFTVCSIGTANAVAGAVKYSESAGGFYYVESGKLFSVTRNRFIHWKTSGDTLELMEESLDINLLNNAIRLKFQNCSVLPGGVYVSETQNRVIILMLTNQTVHRLLLPHPSRMYRSELVVDSQMQSIFTDIGKVDFTDPCNYQLIPAVPGISPNSTASTAWLSSDGEALFALPCASGGIFVLKLPPYDIPGMVSVVELKQSSVMQRLLTGWMPTAIRGDQSPSDRPLSLAVHCVEHDAFIFALCQDHKLRMWSYKEQMCLMVADMLEYVPVKKDLRLTAGTGHKLRLAYSPTMGLYLGIYMHAPKRGQFCIFQLVSTESNRYSLDHISSLFTSQETLIDFALTSTDIWALWHDAENQTVVKYINFEHNVAGQWNPVFMQPLPEEEIVIRDDQDPREMYLQSLFTPGQFTNEALCKALQIFCRGTERNLDLSWSELKKEVTLAVENELQGSVTEYEFSQEEFRNLQQEFWCKFYACCLQYQEALSHPLALHLNPHTNMVCLLKKGYLSFLIPSSLVDHLYLLPYENLLTEDETTISDDVDIARDVICLIKCLRLIEESVTVDMSVIMEMSCYNLQSPEKAAEQILEDMITIDVENVMEDICSKLQEIRNPIHAIGLLIREMDYETEVEMEKGFNPAQPLNIRMNLTQLYGSNTAGYIVCRGVHKIASTRFLICRDLLILQQLLMRLGDAVIWGTGQLFQAQQDLLHRTAPLLLSYYLIKWGSECLATDVPLDTLESNLQHLSVLELTDSGALMANRFVSSPQTIVELFFQEVARKHIISHLFSQPKAPLSQTGLNWPEMITAITSYLLQLLWPSNPGCLFLECLMGNCQYVQLQDYIQLLHPWCQVNVGSCRFMLGRCYLVTGEGQKALECFCQAASEVGKEEFLDRLIRSEDGEIVSTPRLQYYDKVLRLLDVIGLPELVIQLATSAITEAGDDWKSQATLRTCIFKHHLDLGHNSQAYEALTQIPDSSRQLDCLRQLVVVLCERSQLQDLVEFPYVNLHNEVVGIIESRARAVDLMTHNYYELLYAFHIYRHNYRKAGTVMFEYGMRLGREVRTLRGLEKQGNCYLAALNCLRLIRPEYAWIVQPVSGAVYDRPGASPKRNHDGECTAAPTNRQIEILELEDLEKECSLARIRLTLAQHDPSAVAVAGSSSAEEMVTLLVQAGLFDTAISLCQTFKLPLTPVFEGLAFKCIKLQFGGEAAQAEAWAWLAANQLSSVITTKESSATDEAWRLLSTYLERYKVQNNLYHHCVINKLLSHGVPLPNWLINSYKKVDAAELLRLYLNYDLLEEAVDLVSEYVDAVLGKGHQYFGIEFPLSATAPMVWLPYSSIDQLLQALGENSANSHNIALSQKILDKLEDYQQKVDKATRDLLYRRTL
Number of Assigned Spectra, Mia-Paca 2 [1]: 0 | Number of Assigned Spectra, K562 Prep 1 [2]: 13 | Number of Assigned Spectra, K562 Prep 2 [2]: 1

B3: TPP1 (protein, UniProt O14773 196-563, looked up)
Tripeptidyl-peptidase 1: LHLGVTPSVIRKRYNLTSQDVGSGTSNNSQACAQFLEQYFHDSDLAQFMRLFGGNFAHQASVARVVGQQGRGRAGIEASLDVQYLMSAGANISTWVYSSPGRHEGQEPFLQWLMLLSNESALPHVHTVSYGDDEDSLSSAYIQRVNTELMKAAARGLTLLFASGDSGAGCWSVSGRHQFRPTFPASSPYVTTVGGTSFQEPFLITNEIVDYISGGGFSNVFPRPSYQEEAVTKFLSSSPHLPPSSYFNASGRAYPDVAALSDGYWVVSNRVPIPWVSGTSASTPVFGGILSLINEHRILSGRPPLGFLNPRLYQQHGAGLFDVTRGCHESCLDEEVEGQGFCSGPGWDPVTGWGTPNFPALLKTLLNP
Number of Assigned Spectra, Mia-Paca 2 [1]: 1 | Number of Assigned Spectra, K562 Prep 1 [2]: 4 | Number of Assigned Spectra, K562 Prep 2 [2]: 1

B4: NUP54 (protein, UniProt Q7Z3B4 1-507, looked up)
Nucleoporin p54: MAFNFGAPSGTSGTAAATAAPAGGFGGFGTTSTTAGSAFSFSAPTNTGTTGLFGGTQNKGFGFGTGFGTTTGTSTGLGTGLGTGLGFGGFNTQQQQQTTLGGLFSQPTQAPTQSNQLINTASALSAPTLLGDERDAILAKWNQLQAFWGTGKGYFNNNIPPVEFTQENPFCRFKAVGYSCMPSNKDEDGLVVLVFNKKETEIRSQQQQLVESLHKVLGGNQTLTVNVEGTKTLPDDQTEVVIYVVERSPNGTSRRVPATTLYAHFEQANIKTQLQQLGVTLSMTRTELSPAQIKQLLQNPPAGVDPIIWEQAKVDNPDSEKLIPVPMVGFKELLRRLKVQDQMTKQHQTRLDIISEDISELQKNQTTSVAKIAQYKRKLMDLSHRTLQVLIKQEIQRKSGYAIQADEEQLRVQLDTIQGELNAPTQFKGRLNELMSQIRMQNHFGAVRSEERYYIDADLLREIKQHLKQQQEGLSHLISIIKDDLEDIKLVEHGLNETIHIRGGVFS
Number of Assigned Spectra, Mia-Paca 2 [1]: 0 | Number of Assigned Spectra, K562 Prep 1 [2]: 1 | Number of Assigned Spectra, K562 Prep 2 [2]: 7

B5: SDCCAG1 (protein, UniProt O60524 1-1076, looked up)
Ribosome quality control …: MKSRFSTIDLRAVLAELNASLLGMRVNNVYDVDNKTYLIRLQKPDFKATLLLESGIRIHTTEFEWPKNMMPSSFAMKCRKHLKSRRLVSAKQLGVDRIVDFQFGSDEAAYHLIIELYDRGNIVLTDYEYVILNILRFRTDEADDVKFAVRERYPLDHARAAEPLLTLERLTEIVASAPKGELLKRVLNPLLPYGPALIEHCLLENGFSGNVKVDEKLETKDIEKVLVSLQKAEDYMKTTSNFSGKGYIIQKREIKPSLEADKPVEDILTYEEFHPFLFSQHSQCPYIEFESFDKAVDEFYSKIEGQKIDLKALQQEKQALKKLDNVRKDHENRLEALQQAQEIDKLKGELIEMNLQIVDRAIQVVRSALANQIDWTEIGLIVKEAQAQGDPVASAIKELKLQTNHVTMLLRNPYLLSEEEDDDVDGDVNVEKNETEPPKGKKKKQKNKQLQKPQKNKPLLVDVDLSLSAYANAKKYYDHKRYAAKKTQKTVEAAEKAFKSAEKKTKQTLKEVQTVTSIQKARKVYWFEKFLWFISSENYLIIGGRDQQQNEIIVKRYLTPGDIYVHADLHGATSCVIKNPTGEPIPPRTLTEAGTMALCYSAAWDARVITSAWWVYHHQVSKTAPTGEYLTTGSFMIRGKKNFLPPSYLMMGFSFLFKVDESCVWRHQGERKVRVQDEDMETLASCTSELISEEMEQLDGGDTSSDEDKEEHETPVEVELMTQVDQEDITLQSGRDELNEELIQEESSEDEGEYEEVRKDQDSVGEMKDEGEETLNYPDTTIDLSHLQPQRSIQKLASKEESSNSSDSKSQSRRHLSAKERREMKKKKLPSDSGDLEALEGKDKEKESTVHIETHQNTSKNVAAVQPMKRGQKSKMKKMKEKYKDQDEEDRELIMKLLGSAGSNKEEKGKKGKKGKTKDEPVKKQPQKPRGGQRVSDNIKKETPFLEVITHELQDFAVDDPHDDKEEQDLDQQGNEENLFDSLTGQPHPEDVLLFAIPICAPYTTMTNYKYKVKLTPGVQKKGKAAKTALNSFMHSKEATAREKDLFRSVKDTDLSRNIPGKVKVSAPNLLNVKRK
Number of Assigned Spectra, Mia-Paca 2 [1]: 3 | Number of Assigned Spectra, K562 Prep 1 [2]: 2 | Number of Assigned Spectra, K562 Prep 2 [2]: 2

B6: NCKAP1 (protein, UniProt Q9Y2A7 2-1128, looked up)
Nck-associated protein 1: SRSVLQPSQQKLAEKLTILNDRGVGMLTRLYNIKKACGDPKAKPSYLIDKNLESAVKFIVRKFPAVETRNNNQQLAQLQKEKSEILKNLALYYFTFVDVMEFKDHVCELLNTIDVCQVFFDITVNFDLTKNYLDLIITYTTLMILLSRIEERKAIIGLYNYAHEMTHGASDREYPRLGQMIVDYENPLKKMMEEFVPHSKSLSDALISLQMVYPRRNLSADQWRNAQLLSLISAPSTMLNPAQSDTMPCEYLSLDAMEKWIIFGFILCHGILNTDATALNLWKLALQSSSCLSLFRDEVFHIHKAAEDLFVNIRGYNKRINDIRECKEAAVSHAGSMHRERRKFLRSALKELATVLSDQPGLLGPKALFVFMALSFARDEIIWLLRHADNMPKKSADDFIDKHIAELIFYMEELRAHVRKYGPVMQRYYVQYLSGFDAVVLNELVQNLSVCPEDESIIMSSFVNTMTSLSVKQVEDGEVFDFRGMRLDWFRLQAYTSVSKASLGLADHRELGKMMNTIIFHTKMVDSLVEMLVETSDLSIFCFYSRAFEKMFQQCLELPSQSRYSIAFPLLCTHFMSCTHELCPEERHHIGDRSLSLCNMFLDEMAKQARNLITDICTEQCTLSDQLLPKHCAKTISQAVNKKSKKQTGKKGEPEREKPGVESMRKNRLVVTNLDKLHTALSELCFSINYVPNMVVWEHTFTPREYLTSHLEIRFTKSIVGMTMYNQATQEIAKPSELLTSVRAYMTVLQSIENYVQIDITRVFNNVLLQQTQHLDSHGEPTITSLYTNWYLETLLRQVSNGHIAYFPAMKAFVNLPTENELTFNAEEYSDISEMRSLSELLGPYGMKFLSESLMWHISSQVAELKKLVVENVDVLTQMRTSFDKPDQMAALFKRLSSVDSVLKRMTIIGVILSFRSLAQEALRDVLSYHIPFLVSSIEDFKDHIPRETDMKVAMNVYELSSAAGLPCEIDPALVVALSSQKSENISPEEEYKIACLLMVFVAVSLPTLASNVMSQYSPAIEGHCNNIHCLAKAINQIAAALFTIHKGSIEDRLKEFLALASSSLLKIGQETDKTTTRNRESVYLLLDMIVQESPFLTMDLLESCFPYVLLRNAYHAVYKQSVTSSA
Number of Assigned Spectra, Mia-Paca 2 [1]: 2 | Number of Assigned Spectra, K562 Prep 1 [2]: 5 | Number of Assigned Spectra, K562 Prep 2 [2]: 1
